Laboratory results published in patent US20150031864A1.

molecular target: human growth hormone receptor on IM-9 cells (human) (UniProt P10912); assay: cell-based or functional assay
Chain of UniProt P10912 (P10912 19-638): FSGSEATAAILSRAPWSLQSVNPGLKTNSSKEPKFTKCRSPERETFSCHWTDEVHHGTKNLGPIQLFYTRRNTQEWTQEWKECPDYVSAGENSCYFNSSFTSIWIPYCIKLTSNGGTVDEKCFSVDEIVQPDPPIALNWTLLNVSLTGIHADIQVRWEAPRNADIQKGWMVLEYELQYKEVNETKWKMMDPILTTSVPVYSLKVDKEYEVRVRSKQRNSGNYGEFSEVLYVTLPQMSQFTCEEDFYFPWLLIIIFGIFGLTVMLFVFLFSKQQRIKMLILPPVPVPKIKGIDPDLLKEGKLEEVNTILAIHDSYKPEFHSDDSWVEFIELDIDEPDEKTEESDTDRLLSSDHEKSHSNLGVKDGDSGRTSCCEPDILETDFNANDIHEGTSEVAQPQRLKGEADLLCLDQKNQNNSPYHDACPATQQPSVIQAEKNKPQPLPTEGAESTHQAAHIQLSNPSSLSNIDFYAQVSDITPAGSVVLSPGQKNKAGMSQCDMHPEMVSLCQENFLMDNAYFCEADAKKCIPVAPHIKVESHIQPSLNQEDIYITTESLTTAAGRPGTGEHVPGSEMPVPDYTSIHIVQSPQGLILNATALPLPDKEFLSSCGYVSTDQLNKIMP

Substance | EC50 (nM) of STAT5 phosphorylation in IM-9 cells [nM]
N-6His F92pAF hGH (from UniProt P01241 27-217) (ligand) | 0.8
N-6His F139pAF hGH (from UniProt P01241 27-217) (ligand) | 3.3
N-6His G136pAF hGH (from UniProt P01241 27-217) (ligand) | 1.4
N-6His Q91pAF hGH (from UniProt P01241 27-217) (ligand) | 2
N-6His R134pAF hGH (from UniProt P01241 27-217) (ligand) | 0.9
N-6His S95pAF hGH (from UniProt P01241 27-217) (ligand) | 16.7
N-6His Y143pAF hGH (from UniProt P01241 27-217) (ligand) | 0.8

Now from value to substance:

EC50 (nM) of STAT5 phosphorylation in IM-9 cells [nM] | Substance
1.3 | N-6His A155pAF hGH (from UniProt P01241 27-217) (ligand)
0.9 | N-6His E88pAF hGH (from UniProt P01241 27-217) (ligand)
0.8 | N-6His G131pAF hGH (from UniProt P01241 27-217) (ligand)
2.7 | N-6His K140pAF hGH (from UniProt P01241 27-217) (ligand)
8.5 | N-6His N99pAF hGH (from UniProt P01241 27-217) (ligand)
1 | N-6His P133pAF hGH (from UniProt P01241 27-217) (ligand)
0.9 | N-6His T135pAF hGH (from UniProt P01241 27-217) (ligand)
130000 | N-6His Y103pAF hGH (from UniProt P01241 27-217) (ligand)
1 | N-6His Y111pAF hGH (from UniProt P01241 27-217) (ligand)
> 200000 | rat GH WT (from UniProt P01244 27-216) (ligand)
